# The supplement of paper PMC9112550, “Optimization of the antimicrobial peptide Bac7 by deep mutational scanning” (BMC Biology, 2022)
# Tested on: Escherichia coli TOP10
# Test: shrunken log2 fold change of peptide-encoding DNA abundance (4.5 h post-induction vs induction); higher = less antimicrobial activity (less host growth inhibition)
# Conditions: time post-induction: 4.5 h; library: site-saturation at positions 5, 18, 19, 20
# 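Also: peptides expressed intracellularly from a pBAD plasmid library in pooled LB shake-flask culture, induced with 0.3% L-arabinose, DNA abundance read by NGS, three biological replicates, DESeq2 with apeglm shrinkage.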
row,Sequence,shrunken log2 fold change
1,RRIRDRPPRLPRPRPRPLYEPRP,-0.0254
2,RRIRDRPPRLPRPRPRPLYGPRP,-0.105
3,RRIRDRPPRLPRPRPRPLYWPRP,-0.112
4,RRIRDRPPRLPRPRPRPMAHPRP,-0.00211
5,RRIRDRPPRLPRPRPRPMEQPRP,-0.164
6,RRIRDRPPRLPRPRPRPMFMPRP,0.169
7,RRIRDRPPRLPRPRPRPMFNPRP,-0.0203
8,RRIRDRPPRLPRPRPRPMHRPRP,-0.0439
9,RRIRDRPPRLPRPRPRPMIKPRP,-0.222
10,RRIRDRPPRLPRPRPRPMKYPRP,0.0311
11,RRIRDRPPRLPRPRPRPMLFPRP,-0.0792
12,RRIRDRPPRLPRPRPRPMNIPRP,-0.0931
13,RRIRDRPPRLPRPRPRPMREPRP,-0.0167
14,RRIRDRPPRLPRPRPRPMTAPRP,-0.0214
15,RRIRDRPPRLPRPRPRPMTKPRP,-0.0341
16,RRIRDRPPRLPRPRPRPMVVPRP,-0.0202
17,RRIRDRPPRLPRPRPRPMWSPRP,-0.0459
18,RRIRDRPPRLPRPRPRPMYMPRP,-0.00623
19,RRIRDRPPRLPRPRPRPMYRPRP,-0.0107
20,RRIRDRPPRLPRPRPRPMYSPRP,0.0101
21,RRIRDRPPRLPRPRPRPNCPPRP,-0.00232
22,RRIRDRPPRLPRPRPRPNDNPRP,-0.563
23,RRIRDRPPRLPRPRPRPNDSPRP,-0.134
24,RRIRDRPPRLPRPRPRPNENPRP,-0.177
25,RRIRDRPPRLPRPRPRPNFPPRP,-0.0273

row,Sequence,shrunken log2 fold change
1,RRIRDRPPRLPRPRPRPNGTPRP,0.00868
2,RRIRDRPPRLPRPRPRPNGVPRP,-0.0244
3,RRIRDRPPRLPRPRPRPNHQPRP,-0.303
4,RRIRDRPPRLPRPRPRPNICPRP,0.153
5,RRIRDRPPRLPRPRPRPNIMPRP,-0.367
6,RRIRDRPPRLPRPRPRPNIYPRP,-0.3
7,RRIRDRPPRLPRPRPRPNKGPRP,-0.00129
8,RRIRDRPPRLPRPRPRPNKPPRP,-0.0743
9,RRIRDRPPRLPRPRPRPNKRPRP,-0.14
10,RRIRDRPPRLPRPRPRPNLHPRP,-0.0379
11,RRIRDRPPRLPRPRPRPNLRPRP,-0.162
12,RRIRDRPPRLPRPRPRPNLWPRP,-0.0934
13,RRIRDRPPRLPRPRPRPNMVPRP,0.136
14,RRIRDRPPRLPRPRPRPNNNPRP,-0.667
15,RRIRDRPPRLPRPRPRPNNPPRP,-0.357
16,RRIRDRPPRLPRPRPRPNNRPRP,-0.178
17,RRIRDRPPRLPRPRPRPNQLPRP,-0.0966
18,RRIRDRPPRLPRPRPRPNQNPRP,0.0279
19,RRIRDRPPRLPRPRPRPNQSPRP,-0.527
20,RRIRDRPPRLPRPRPRPNQWPRP,0.151
21,RRIRDRPPRLPRPRPRPNRDPRP,-0.0372
22,RRIRDRPPRLPRPRPRPNRNPRP,-0.227
23,RRIRDRPPRLPRPRPRPNSHPRP,0.0526
24,RRIRDRPPRLPRPRPRPNTCPRP,-0.0241
25,RRIRDRPPRLPRPRPRPNVIPRP,-0.0253

row,Sequence,shrunken log2 fold change
1,RRIRDRPPRLPRPRPRPNWIPRP,-0.389
2,RRIRDRPPRLPRPRPRPNWSPRP,-0.0955
3,RRIRDRPPRLPRPRPRPNYEPRP,-0.252
4,RRIRDRPPRLPRPRPRPNYMPRP,-0.216
5,RRIRDRPPRLPRPRPRPNYWPRP,-0.218
6,RRIRDRPPRLPRPRPRPPAPPRP,1.05
7,RRIRDRPPRLPRPRPRPPCLPRP,-0.264
8,RRIRDRPPRLPRPRPRPPCMPRP,-0.317
9,RRIRDRPPRLPRPRPRPPDRPRP,0.468
10,RRIRDRPPRLPRPRPRPPDWPRP,0.421
11,RRIRDRPPRLPRPRPRPPEPPRP,0.84
12,RRIRDRPPRLPRPRPRPPFEPRP,0.254
13,RRIRDRPPRLPRPRPRPPFSPRP,0.0121
14,RRIRDRPPRLPRPRPRPPHQPRP,-0.022
15,RRIRDRPPRLPRPRPRPPHVPRP,0.0772
16,RRIRDRPPRLPRPRPRPPMEPRP,-0.0667
17,RRIRDRPPRLPRPRPRPPMMPRP,-0.0737
18,RRIRDRPPRLPRPRPRPPMPPRP,0.203
19,RRIRDRPPRLPRPRPRPPNAPRP,0.617
20,RRIRDRPPRLPRPRPRPPNPPRP,0.0735
21,RRIRDRPPRLPRPRPRPPPNPRP,0.84
22,RRIRDRPPRLPRPRPRPPQLPRP,0.143
23,RRIRDRPPRLPRPRPRPPTDPRP,0.564
24,RRIRDRPPRLPRPRPRPPTGPRP,0.522
25,RRIRDRPPRLPRPRPRPPVDPRP,0.361
